Measurements published in patent publication US20110162109A1 (BASF PLANT SCIENCE, published 2011).

B1: HUB1 (Histone Monoubiquitination 1), At2g44950, Arabidopsis thaliana (enzyme)
chain: MASTGEPDRKRRHFSSISPSEAAAAVKKQPFFWPSSEDKLDTAVLQFQNLKLSQKLEAQQVECSILEDKLSQIKEKQLPYNSSLKTVHKSWEKLTASVESCSVRVSDSSSGAHRFVNKEDGSSPAVKNDFINRLLETGATESSSSNICSNQMEENGVNTSSQMTQTLYNLVAATEDLRCLKDELYPTVLRTNLGKDLCGQLALSELESEIKSFRGDLDDVLVKFKSLSRELQSHRDADAKVRVDLKRIRGELEDEVVELQQCNGDLSALRAERDATAGAFFPVLSLGNKLATSDRERDKQRDLQDMETVLKELTVLASGRLQQLKNLHEERTKMLGKMSNLQNKSKSVRCISSSQACLSLKDQLEKSKEAVFQYMALLEKLQVEKDSIVWKEREINIKNELGDVSRKTSAVTDSRMASLDSEIQKQLDEKMRIKTRLGNISRERGRKEIFADMKALISSFPEEMSSMRSQLNNYKETAGGIHSLRADVQSLSGVLCRKTKEYEALQLRSADYASQLGDLNATVCDLKNSHEELKLFLDMYKRESTDARDIAEAKEQEYRAWAHVQSLKSSLDEQNLELRVKAANEAEAVSQQMLAAAEAEIADLRQKMDDCKRDVAKHSDILKSKHEEHGTYLSEIQTIGSAYEDIVPQNQRLLLQVTERDDYNIKLFLEGITSRQMQDTLLIDKYIMDKDIQQGSAYASFLSKKSSRIEDQLRFCTDQFQKLAEDKYQKSVSLENLQKKRADIGNGLEQARSRLEESHSKVEQSRLDYGALELELEIERFNRRRIEEEMEIAKKKVSRLRSLIEGSSAIQKLRQELSEFKEILKCKACNDRPKEVVITKCYHLFCNPCVQKLTGTRQKKCPTCSASFGPNDIKPIYI
notes: Full length HUB1; In the TAP experiments N-terminally fused to the TAP tag or the GS-TAP tag; in yeast two-hybrid fused to AD (pDEST22) or BD (pDEST32); all these constructs are written under this one entry; also called HUB1fl; full length HUB1

Assays:
[1] = target: UBC2, At2g02760 (Arabidopsis thaliana) (UniProt P42745); assay: GS-TAP purification + MALDI-TOF-TOF MS, bait UBC2 (third block); expectance is the MS identification score
[2] = target: T1, HUB2, At1g55250, Arabidopsis thaliana (Arabidopsis thaliana, UniProt Q9C895 1-900); assay: GS-TAP purification + MALDI-TOF-TOF MS, bait HUB2 (b); expectance is the MS identification score
T1 construct: As prey the endogenous protein of Arabidopsis cell culture; as bait N-terminal GS-TAP fusion; in yeast two-hybrid an AD fusion; also called AAG51572.1
T1 sequence: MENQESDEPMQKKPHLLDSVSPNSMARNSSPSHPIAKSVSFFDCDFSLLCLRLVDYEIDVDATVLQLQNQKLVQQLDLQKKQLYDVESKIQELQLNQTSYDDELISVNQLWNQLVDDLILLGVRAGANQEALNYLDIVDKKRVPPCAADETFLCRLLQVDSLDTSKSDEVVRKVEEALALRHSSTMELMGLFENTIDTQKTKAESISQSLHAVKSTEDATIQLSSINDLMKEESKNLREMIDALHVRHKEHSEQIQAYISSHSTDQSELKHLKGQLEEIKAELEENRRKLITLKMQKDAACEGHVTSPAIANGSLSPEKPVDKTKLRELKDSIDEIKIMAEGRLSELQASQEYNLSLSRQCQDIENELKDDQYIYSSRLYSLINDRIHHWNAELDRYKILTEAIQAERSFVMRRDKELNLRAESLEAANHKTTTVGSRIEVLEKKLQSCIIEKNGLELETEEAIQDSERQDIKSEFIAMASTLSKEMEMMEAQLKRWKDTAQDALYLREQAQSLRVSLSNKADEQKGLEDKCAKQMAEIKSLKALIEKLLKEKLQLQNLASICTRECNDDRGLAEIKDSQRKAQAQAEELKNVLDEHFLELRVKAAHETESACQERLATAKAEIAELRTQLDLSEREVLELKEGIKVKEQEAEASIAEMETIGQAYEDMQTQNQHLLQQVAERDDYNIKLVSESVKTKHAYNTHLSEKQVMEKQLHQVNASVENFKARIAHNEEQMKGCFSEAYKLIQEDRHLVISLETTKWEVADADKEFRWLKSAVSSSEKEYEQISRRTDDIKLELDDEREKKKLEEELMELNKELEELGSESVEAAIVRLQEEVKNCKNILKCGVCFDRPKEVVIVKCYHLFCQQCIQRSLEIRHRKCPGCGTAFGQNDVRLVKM

[3] = target: HUB1 (Histone Monoubiquitination 1), At2g44950, Arabidopsis thaliana (Arabidopsis thaliana) (UniProt Q8RXD6); assay: GS-TAP purification + MALDI-TOF-TOF MS, bait HUB1 (a′); expectance is the MS identification score
[4] = target: T1, HUB2, At1g55250, Arabidopsis thaliana; assay: GS-TAP purification + MALDI-TOF-TOF MS, bait HUB2 (a); expectance is the MS identification score
[5] = target: Spen like protein, At1g27750 (Arabidopsis thaliana); assay: GS-TAP purification + MALDI-TOF-TOF MS, bait SL (a); expectance is the MS identification score
[6] = target: HUB1 (Histone Monoubiquitination 1), At2g44950, Arabidopsis thaliana (Arabidopsis thaliana) (UniProt Q8RXD6); assay: GS-TAP purification + MALDI-TOF-TOF MS, bait HUB1 (b); expectance is the MS identification score
[7] = target: Spen like protein, At1g27750 (Arabidopsis thaliana); assay: GS-TAP purification + MALDI-TOF-TOF MS, bait SL (b); expectance is the MS identification score
[8] = target: HUB1 (Histone Monoubiquitination 1), At2g44950, Arabidopsis thaliana (Arabidopsis thaliana) (UniProt Q8RXD6); assay: GS-TAP purification + MALDI-TOF-TOF MS, bait HUB1 (b′); expectance is the MS identification score
[9] = target: SEUSS, At1g43850 (Arabidopsis thaliana) (UniProt Q8W234); assay: GS-TAP purification + MALDI-TOF-TOF MS, bait SEUSS (a); expectance is the MS identification score
[10] = target: SEUSS, At1g43850 (Arabidopsis thaliana) (UniProt Q8W234); assay: GS-TAP purification + MALDI-TOF-TOF MS, bait SEUSS (b); expectance is the MS identification score
[11] = target: the molecule itself; assay: TAP with N-terminally TAP-tagged HUB1 from Arabidopsis cell culture, mass spectrometry; column Confirmed
Procedure: Because the RING proteins have their functionally important domain at the C-terminus, an N-terminal fusion was prepared instead of the traditional C-terminal fusion by cloning both full length and the point mutant form of HUB1 (HUB1pm, HUB1fl). The Arabidopsis cell cultures were transformed with the two constructs and cultivated on 10 litre scale, harvested and purified by TAP (Van Leene et al., Mol. Cell. Proteomics 6, 1226-38, 2007). The protein extracts were separated on 1-D SDS-PAGE gels and isolated from gel for protein identification by mass spectrometry (Laukens et al., Proteomics. 4, 720-7, 2004, Van Leene et al., 2007). Two cut offs were used resulting in “confirmed” and “to be confirmed” candidate interactor lists (Table I).
In the data set of confirmed interactors TAP HUB1 and HUB2 were present, […] the dimer formation between the homologues. In addition, the acetyltransferase GCN5, RNA binding proteins and a KH domain protein were identified as HUB1 interacting proteins. Most of these proteins are known to be localized in nucleus or nucleoli. GFP constructs of HUB1 have also been localized to nucleus (Liu et al., 2007). When HUB1pm was used for TAP purification no HUB2 could be identified as an interacting protein.

[12] = target: T1, HUB2, At1g55250, Arabidopsis thaliana; assay: yeast two-hybrid
[13] = target: B1; assay: yeast two-hybrid

SEUSS, At1g43850 (Arabidopsis thaliana), sequence (Q8W234 whole entry): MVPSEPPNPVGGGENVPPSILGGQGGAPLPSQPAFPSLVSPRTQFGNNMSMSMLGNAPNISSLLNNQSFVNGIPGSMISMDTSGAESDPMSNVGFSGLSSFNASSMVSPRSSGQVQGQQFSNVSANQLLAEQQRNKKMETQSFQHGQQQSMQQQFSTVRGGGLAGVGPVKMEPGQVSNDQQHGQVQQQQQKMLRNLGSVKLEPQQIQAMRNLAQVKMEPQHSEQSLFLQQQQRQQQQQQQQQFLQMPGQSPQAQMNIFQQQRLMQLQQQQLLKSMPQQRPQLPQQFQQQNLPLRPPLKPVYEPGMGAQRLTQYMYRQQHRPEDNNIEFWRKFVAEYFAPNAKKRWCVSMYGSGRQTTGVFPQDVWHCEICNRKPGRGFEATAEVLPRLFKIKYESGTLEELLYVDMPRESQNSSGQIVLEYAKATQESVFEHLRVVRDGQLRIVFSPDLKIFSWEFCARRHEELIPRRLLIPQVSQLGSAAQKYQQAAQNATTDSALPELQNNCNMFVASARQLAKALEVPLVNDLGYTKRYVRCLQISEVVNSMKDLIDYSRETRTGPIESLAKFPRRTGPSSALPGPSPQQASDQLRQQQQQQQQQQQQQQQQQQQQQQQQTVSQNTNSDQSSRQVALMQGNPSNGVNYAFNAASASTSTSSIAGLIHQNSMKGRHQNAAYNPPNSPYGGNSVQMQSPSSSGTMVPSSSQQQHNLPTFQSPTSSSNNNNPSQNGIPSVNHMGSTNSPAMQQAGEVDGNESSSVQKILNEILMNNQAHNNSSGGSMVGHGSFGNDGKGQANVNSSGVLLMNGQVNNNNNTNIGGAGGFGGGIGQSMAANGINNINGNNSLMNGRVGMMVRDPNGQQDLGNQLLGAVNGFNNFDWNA

Q: For “AtUBA1, AT2G30110 (from UniProt P93028 1-1080) (enzyme)”, which Expectance [1] is on record?
A: Its Expectance is 0.00082.

Q: How did the Expectance [1] turn out when “AtUBA2, AT5G06460 (from UniProt P92974 1-1077) (enzyme)” was run?
A: Its Expectance is 0.00026.

Q: Which results are given for KH domain protein, At1g51580?
A: Expectance [2]: 1.6e-09; Expectance [3]: 2.1e-09; Expectance [4]: 1.3e-08; Expectance [5]: 0.00054; Expectance [6]: 1.6e-08; Expectance [7]: 2.6e-12; Expectance [8]: 3.3e-09

Q: Which results are given for “LUH, At2G32700 (from UniProt O48847 1-787)”?
A: Expectance [9]: 3.3e-99; Expectance [10]: 2.1e-82

Q: Which Expectance [2] does the source give for Spen like protein, At1g27750 here?
A: The Expectance was 1e-24.

Q: What about the Expectance [3] of the same molecule?
A: The Expectance was 6.5e-16.

Q: And the Expectance [4]?
A: The Expectance was 0.00097.

Q: What about the Expectance [8] of the same molecule?
A: Its Expectance is 0.024.

Q: Which results are given for B1?
A: binding result [11]: binds; monoubiquitination of histone H2B in the in vitro ubiquitination assay (protein gel blot) (histone H2B): shift of H2B by 10 kDa

B2: UBC1 (E2 conjugating enzyme, Arabidopsis thaliana) (enzyme, UniProt P25865 1-152, looked up)
chain: MSTPARKRLMRDFKRLQQDPPAGISGAPQDNNIMLWNAVIFGPDDTPWDGGTFKLSLQFSEDYPNKPPTVRFVSRMFHPNIYADGSICLDILQNQWSPIYDVAAILTSIQSLLCDPNPNSPANSEAARMYSESKREYNRRVRDVVEQSWTAD
notes: Yeast two-hybrid fusion
Q: Does B2 bind [12]?
A: Result: no binding

Q: Does B2 bind [13]?
A: Result: no binding

B3: UBC2, At2g02760 (enzyme, Arabidopsis thaliana, UniProt P42745 1-152, looked up)
chain: MSTPARKRLMRDFKRLQQDPPAGISGAPQDNNIMLWNAVIFGPDDTPWDGGTFKLSLQFSEDYPNKPPTVRFVSRMFHPNIYADGSICLDILQNQWSPIYDVAAILTSIQSLLCDPNPNSPANSEAARMFSESKREYNRRVREVVEQSWTAD
notes: As bait N-terminal GS-TAP fusion; fusion protein in yeast two-hybrid; also called E2 conjugating enzyme UBC2
Q: Does B3 bind [12]?
A: Result: no binding

Q: Does B3 bind [13]?
A: Result: no binding

B4: UBC3 (E2 conjugating enzyme, Arabidopsis thaliana) (enzyme, UniProt P42746 1-150, looked up)
chain: MTTPAKKRLMWDFKRLQKDPPVGISGAPQDNNIMHWNALIFGPEDTPWDGGTFKLTLHFTEDYPNKPPIVRFVSRMFHPNIYADGSICLDILQNQWSPIYDVAAVLTSIQSLLCDPNPDSPANAEAARLFSENKREYNRKVIEIVEQSYV
notes: Yeast two-hybrid fusion
Q: Does B4 bind [12]?
A: Result: no binding

Q: Does B4 bind [13]?
A: Result: no binding
